Reference: patent publication US20240327495A1 (OXFORD UNIVERSITY INNOVATION, published 2024)
Residue numbers refer to the chain shown, from its start. Names may count otherwise.

Columns and labels:
[1] = target: T1, trypsin (cow, UniProt P00760 24-246); experiment: plate assay, trypsin-coated wells, bound gastrobody detected with biotinylated GTD and streptavidin-HRP
T1 construct: also called trypsin from cow pancreas (T1426, Merck)

[2] = target: T2, combined repetitive oligopeptide domain of C. difficile toxin A (residues 2304-2710, CROP) (Clostridium difficile, UniProt P16154 2304-2710); experiment: ELISA on antigen-coated wells, anti-SBTI antibody detection
T2 construct: range 2304-2710; also called AviTag-His6-CROP; TcdA CROP

[3] = target: T3, C. difficile toxin B glucosyltransferase domain (GTD, residues 2-543) (Clostridium difficile, UniProt P18177 2-543)
[4] = target: hen egg lysozyme (HEL) (hen, UniProt P00698 19-147); experiment: ELISA, antigen-coated wells, 500 nM gastrobody, detected with polyclonal anti-SBTI antibody
[5] = target: T3, C. difficile toxin B …; experiment: SPR, kinetic analysis, biotinylated AviTag-His6-GTD captured on the chip
[6] = target: T3, C. difficile toxin B …; experiment: SPR, immobilised GTD
[7] = target: T3, C. difficile toxin B …; experiment: SPR, GTD
[8] = target: T3, C. difficile toxin B …; experiment: SPR, immobilised GTD; remark: listed apart in the source
[9] = target: T2, combined repetitive oligopeptide domain …; experiment: SPR, equilibrium analysis, biotinylated AviTag-His6-CROP captured on the chip
[10] = target: T3, C. difficile toxin B …; experiment: ELISA on antigen-coated wells, anti-SBTI antibody detection

B1: anti-GTD gastrobody GT01 (designed binder, not shown: small tags and cut ends)
chain: DFVLDNEGNPLENGGTYYILSDYGRQLFGGIRAAPTGNERCPLTVVQSLFRNHRDKGIGTIISSPYRIRFIAEGHPLSLKFDSFAVIMLCVGIPTEWSVVEDLPEGPAVKIGENKDAMDGWFRLERVSDDEFNNYKLVFCPQQAEDDKCGDIGISIDHDDGTRRLVVSKNKPLVVQFQKLDKESL
notes: also called anti-GTD (GT01); His6-Thrombin site-SpyTag003-GT01
In the case of B1, the “EC50 (read off the curve)” value [1] is reported as roughly 20 nM, the binding result [2] is reported as “no binding (tested: 500 nM gastrobody)” and the “EC50 (read off the curve)” value [3] is reported as roughly 7 nM. The binding result [4] was “no binding (tested: 500 nM)”, the Kd [5] was 85 nM and the koff [5] was 0.036 s⁻¹. For the same binder, the kon [5] was 420000 M⁻¹ s⁻¹.

B2: anti-GTD gastrobody GT44 (designed binder, not shown: small tags and cut ends)
chain: B1 chain with S128N, D129P, D130S, E131N, F132G
With B2 the Kd [6] was 17.4 nM, the koff [6] was 0.022 s⁻¹ and the kon [6] was 1.3e+06 M⁻¹ s⁻¹.

B3: GT01 R63A (designed binder, not shown: small tags and cut ends)
chain: B1 chain with R67A
For B3, the binding result [1] was “no binding (tested: 200 nM)” and the Kd [7] was 78.7 nM.

B4: anti-GTD gastrobody GT47 (designed binder, not shown: small tags and cut ends)
chain: DFVLDNEGNPLENGGTYYILSDYGRQLFGGIRAAPTGNERCPLTVVQSLFRNHRDKGIGTIISSPYRIRFIAEGHPLSLKFDSFAVIMLCVGIPTEWSVVEDLPEGPAVKIGENKDAMDGWFRLERVRPTSSTGNNYKLVFCPQQAEDDKCGDIGISIDHDDGTRRLVVSKNKPLVVQFQKLDKESL
With B4 the “fold improvement of affinity against GT01” value [8] was roughly 8 fold, the Kd [6] was 10.3 nM and the koff [6] was 0.022 s⁻¹. For the same binder, the kon [6] was 2.1e+06 M⁻¹ s⁻¹.

B5: anti-CROP gastrobody G9 (designed binder, not shown: small tags and cut ends)
chain: DFVLDNEGNPLENGGTYYILSHPDLFGGIRAAPTGNERCPLTVVQSLYLFDKGIGTIISSPYRIRFIAEGHPLSLKFDSFAVIMLCVGIPTEWSVVEDLPEGPAVKIGENKDAMDGWFRLERVSDDEFNNYKLVFCPQQAEDDKCGDIGISIDHDDGTRRLVVSKNKPLVVQFQKLDKESL
B5 gave a Kd [9] of 4600 nM.

B6: anti-CROP gastrobody G22 (designed binder, not shown: small tags and cut ends)
chain: B5 chain with H22L, P23Q, D24N, L25R, L47H, Y48D, L49F, F50M
Work on B6 yielded a Kd [9] of roughly 50000 nM.

B7: anti-CROP gastrobody T12 (designed binder, not shown: small tags and cut ends)
chain: B5 chain with H22I, P23A, D24G, L25T, Y48V, L49F, F50P
notes: also called anti-CROP clone T12; anti-CROP (T12)
In the case of B7, the Kd [9] is reported as 1700 nM, the binding result [10] is reported as “no binding (tested: 500 nM gastrobody)” and the binding result [4] is reported as “no binding (tested: 500 nM)”.

B8: anti-CROP gastrobody T42 (designed binder, not shown: small tags and cut ends)
chain: B5 chain with H22V, D24H, L25Q, L47R, Y48N, L49K, F50W
B8 was tested, and the Kd [9] was 7300 nM.
